Test results taken from article PMC9076600, “Ultrasensitive detection of Staphylococcal enterotoxin B in milk based on target-triggered assembly of the flower like nucleic acid nanostructure†”.

Legend:
Test in all cases: Binding buffer not stated; […] (50 uM) […]
[1] = biological target: Staphylococcal enterotoxin B (SEB) (UniProt P01552 28-266)
[2] = biological target: Staphylococcal enterotoxin A (SEA) (UniProt P0A0L2 25-257)
OVA = OVA (UniProt P01012 2-386)
Sequence of OVA (P01012 2-386): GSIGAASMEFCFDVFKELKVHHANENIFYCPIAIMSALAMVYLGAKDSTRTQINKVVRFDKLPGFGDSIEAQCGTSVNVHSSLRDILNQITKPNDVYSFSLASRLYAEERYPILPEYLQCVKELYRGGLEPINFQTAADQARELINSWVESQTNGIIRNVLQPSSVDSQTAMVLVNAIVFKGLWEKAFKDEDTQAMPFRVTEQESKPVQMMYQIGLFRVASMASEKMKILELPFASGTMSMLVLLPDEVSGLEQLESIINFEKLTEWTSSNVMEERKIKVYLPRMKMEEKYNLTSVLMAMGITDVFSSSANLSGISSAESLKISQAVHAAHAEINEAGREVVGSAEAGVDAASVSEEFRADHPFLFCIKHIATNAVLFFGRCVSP

Sequence of Staphylococcal enterotoxin B (SEB) (P01552 28-266): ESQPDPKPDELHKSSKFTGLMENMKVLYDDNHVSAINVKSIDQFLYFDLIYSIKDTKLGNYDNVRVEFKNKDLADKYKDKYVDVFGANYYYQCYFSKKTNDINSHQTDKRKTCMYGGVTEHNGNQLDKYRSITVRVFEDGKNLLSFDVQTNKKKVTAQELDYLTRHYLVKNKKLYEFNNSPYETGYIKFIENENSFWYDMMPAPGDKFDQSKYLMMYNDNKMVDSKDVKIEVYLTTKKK
Sequence of Staphylococcal enterotoxin A (SEA) (P0A0L2 25-257): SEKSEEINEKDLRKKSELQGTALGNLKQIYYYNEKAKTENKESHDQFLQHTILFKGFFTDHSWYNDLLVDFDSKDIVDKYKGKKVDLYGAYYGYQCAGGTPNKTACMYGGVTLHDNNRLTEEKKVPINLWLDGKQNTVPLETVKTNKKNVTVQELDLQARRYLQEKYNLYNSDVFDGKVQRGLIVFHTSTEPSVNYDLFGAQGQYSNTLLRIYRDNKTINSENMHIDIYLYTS

B1: SEB aptamer (ssDNA)
DNA: GGTATTGAGGGTCGCATCCACTGGTCGTTGTCTGTTGTCTGTTATGTTGTTTCGTGATGGCTCTAACTCTCCTCT
binding result [1]: binds
binding result [2]: no binding
binding result (OVA): no binding
